Experiments:
[1] = molecular target: human recombinant CD11b I domain (N-terminal 6x-His, C-terminal 6x-glycine linker and 3x-Flag) (human) (UniProt P11215); test: SPR (Biacore T100), human I domain immobilised on CM5 chip, LukAB as analyte, multi cycle kinetics
[2] = molecular target: human recombinant Mac-1 (CD11b/CD18, integrin alphaM/beta2), R&D Systems (human) (UniProt P05107); test: SPR (Biacore T100), Mac-1 immobilised on CM5 chip, LukAB as analyte, multi cycle kinetics
[3] = molecular target: human recombinant CD11b I domain (N-terminal 6x-His, C-terminal 6x-glycine linker and 3x-Flag) (human) (UniProt P11215); test: SPR
[4] = molecular target: human CD11b (Integrin alpha-M), full length (human) (UniProt P11215); test: cell-based or functional assay
[5] = molecular target: Endoplasmic reticulum resident protein ERp44 (human) (UniProt Q9BS26); test: His-LukAB pull-down from solubilised primary human PMNs on nickel resin, mass spectrometry
Chain of UniProt Q9BS26 (Q9BS26 30-406 limits assumed): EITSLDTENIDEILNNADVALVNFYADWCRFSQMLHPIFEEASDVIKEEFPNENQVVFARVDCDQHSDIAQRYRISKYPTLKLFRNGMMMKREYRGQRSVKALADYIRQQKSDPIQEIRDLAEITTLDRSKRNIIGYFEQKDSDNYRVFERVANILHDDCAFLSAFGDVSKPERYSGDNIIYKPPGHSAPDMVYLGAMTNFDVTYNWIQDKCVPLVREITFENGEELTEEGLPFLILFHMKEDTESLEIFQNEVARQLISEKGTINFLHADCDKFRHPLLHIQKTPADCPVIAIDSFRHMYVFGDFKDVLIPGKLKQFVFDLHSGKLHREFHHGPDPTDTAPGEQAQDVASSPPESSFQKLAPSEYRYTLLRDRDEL

[6] = molecular target: Beta-adrenergic receptor kinase 1 (human) (UniProt P25098); test: as above
[7] = molecular target: E3 ubiquitin-protein ligase CBL (human) (UniProt P22681); test: as above
Catalase (human) = Catalase (human) (UniProt P04040); test: as above
Serum albumin (human) = Serum albumin (human) (UniProt P02768); test: as above
Chain of UniProt P02768 (P02768 25-609 limits assumed): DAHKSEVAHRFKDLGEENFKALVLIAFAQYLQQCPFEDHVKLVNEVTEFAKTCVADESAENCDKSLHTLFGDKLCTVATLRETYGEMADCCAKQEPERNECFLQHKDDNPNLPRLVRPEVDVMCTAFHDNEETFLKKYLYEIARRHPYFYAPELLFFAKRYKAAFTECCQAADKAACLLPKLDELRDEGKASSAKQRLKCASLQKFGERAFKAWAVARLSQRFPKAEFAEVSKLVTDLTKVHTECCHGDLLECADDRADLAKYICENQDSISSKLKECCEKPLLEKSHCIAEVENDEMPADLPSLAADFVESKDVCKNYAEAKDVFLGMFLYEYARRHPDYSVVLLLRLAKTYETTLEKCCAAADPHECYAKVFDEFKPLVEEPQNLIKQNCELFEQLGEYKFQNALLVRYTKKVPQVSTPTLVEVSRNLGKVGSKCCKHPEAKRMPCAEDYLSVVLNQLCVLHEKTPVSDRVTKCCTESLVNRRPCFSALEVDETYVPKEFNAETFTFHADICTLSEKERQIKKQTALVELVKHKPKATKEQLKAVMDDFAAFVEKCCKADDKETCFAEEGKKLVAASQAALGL

Alpha-enolase (human) = Alpha-enolase (human) (UniProt P06733); test: as above
Plastin-2 (human) = Plastin-2 (human) (UniProt P13796); test: as above
Chain of UniProt P13796 (P13796 2-627 limits assumed): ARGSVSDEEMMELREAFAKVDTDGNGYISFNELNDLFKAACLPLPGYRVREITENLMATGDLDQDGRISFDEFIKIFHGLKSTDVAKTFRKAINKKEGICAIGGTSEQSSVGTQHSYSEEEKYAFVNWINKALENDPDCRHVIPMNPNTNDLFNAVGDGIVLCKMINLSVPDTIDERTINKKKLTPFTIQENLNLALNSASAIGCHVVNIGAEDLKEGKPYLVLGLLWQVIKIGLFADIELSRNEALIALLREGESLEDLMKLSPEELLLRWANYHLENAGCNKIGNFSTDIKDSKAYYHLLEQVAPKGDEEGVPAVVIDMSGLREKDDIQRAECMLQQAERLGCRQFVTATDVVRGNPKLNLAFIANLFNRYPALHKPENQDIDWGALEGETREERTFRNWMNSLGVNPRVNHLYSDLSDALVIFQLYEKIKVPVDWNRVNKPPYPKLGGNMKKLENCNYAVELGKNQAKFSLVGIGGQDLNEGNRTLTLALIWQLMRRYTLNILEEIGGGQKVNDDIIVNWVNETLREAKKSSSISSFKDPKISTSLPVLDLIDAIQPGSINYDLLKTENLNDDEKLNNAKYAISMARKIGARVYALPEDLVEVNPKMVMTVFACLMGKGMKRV

[8] = molecular target: Guanine nucleotide-binding protein G(i) (human) (UniProt P04899); test: as above
[9] = molecular target: Hemoglobin subunit beta (human) (UniProt P68871); test: as above
Chain of UniProt P68871 (P68871 2-147 limits assumed): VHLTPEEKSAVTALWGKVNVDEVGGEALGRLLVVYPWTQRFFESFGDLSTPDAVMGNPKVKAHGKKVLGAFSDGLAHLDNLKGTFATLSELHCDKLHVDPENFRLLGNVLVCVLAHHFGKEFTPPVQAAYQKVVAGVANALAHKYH

cDNA FLJ53963 (human) = test: as above
Chain of cDNA FLJ53963 (human) (P30740 whole entry): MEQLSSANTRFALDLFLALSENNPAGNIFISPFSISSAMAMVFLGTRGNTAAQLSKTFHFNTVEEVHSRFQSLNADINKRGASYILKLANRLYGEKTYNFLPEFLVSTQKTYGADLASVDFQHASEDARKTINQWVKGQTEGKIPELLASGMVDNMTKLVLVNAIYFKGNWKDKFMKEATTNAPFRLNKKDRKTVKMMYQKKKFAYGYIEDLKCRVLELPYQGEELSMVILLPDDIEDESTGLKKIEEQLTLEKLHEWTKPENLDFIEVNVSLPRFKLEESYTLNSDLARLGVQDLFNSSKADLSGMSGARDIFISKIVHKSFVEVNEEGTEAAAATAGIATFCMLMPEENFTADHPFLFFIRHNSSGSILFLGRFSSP

Myosin-9 (human) = Myosin-9 (human) (UniProt P35579); test: as above
Chain of UniProt P35579 (P35579 2-1960 limits assumed): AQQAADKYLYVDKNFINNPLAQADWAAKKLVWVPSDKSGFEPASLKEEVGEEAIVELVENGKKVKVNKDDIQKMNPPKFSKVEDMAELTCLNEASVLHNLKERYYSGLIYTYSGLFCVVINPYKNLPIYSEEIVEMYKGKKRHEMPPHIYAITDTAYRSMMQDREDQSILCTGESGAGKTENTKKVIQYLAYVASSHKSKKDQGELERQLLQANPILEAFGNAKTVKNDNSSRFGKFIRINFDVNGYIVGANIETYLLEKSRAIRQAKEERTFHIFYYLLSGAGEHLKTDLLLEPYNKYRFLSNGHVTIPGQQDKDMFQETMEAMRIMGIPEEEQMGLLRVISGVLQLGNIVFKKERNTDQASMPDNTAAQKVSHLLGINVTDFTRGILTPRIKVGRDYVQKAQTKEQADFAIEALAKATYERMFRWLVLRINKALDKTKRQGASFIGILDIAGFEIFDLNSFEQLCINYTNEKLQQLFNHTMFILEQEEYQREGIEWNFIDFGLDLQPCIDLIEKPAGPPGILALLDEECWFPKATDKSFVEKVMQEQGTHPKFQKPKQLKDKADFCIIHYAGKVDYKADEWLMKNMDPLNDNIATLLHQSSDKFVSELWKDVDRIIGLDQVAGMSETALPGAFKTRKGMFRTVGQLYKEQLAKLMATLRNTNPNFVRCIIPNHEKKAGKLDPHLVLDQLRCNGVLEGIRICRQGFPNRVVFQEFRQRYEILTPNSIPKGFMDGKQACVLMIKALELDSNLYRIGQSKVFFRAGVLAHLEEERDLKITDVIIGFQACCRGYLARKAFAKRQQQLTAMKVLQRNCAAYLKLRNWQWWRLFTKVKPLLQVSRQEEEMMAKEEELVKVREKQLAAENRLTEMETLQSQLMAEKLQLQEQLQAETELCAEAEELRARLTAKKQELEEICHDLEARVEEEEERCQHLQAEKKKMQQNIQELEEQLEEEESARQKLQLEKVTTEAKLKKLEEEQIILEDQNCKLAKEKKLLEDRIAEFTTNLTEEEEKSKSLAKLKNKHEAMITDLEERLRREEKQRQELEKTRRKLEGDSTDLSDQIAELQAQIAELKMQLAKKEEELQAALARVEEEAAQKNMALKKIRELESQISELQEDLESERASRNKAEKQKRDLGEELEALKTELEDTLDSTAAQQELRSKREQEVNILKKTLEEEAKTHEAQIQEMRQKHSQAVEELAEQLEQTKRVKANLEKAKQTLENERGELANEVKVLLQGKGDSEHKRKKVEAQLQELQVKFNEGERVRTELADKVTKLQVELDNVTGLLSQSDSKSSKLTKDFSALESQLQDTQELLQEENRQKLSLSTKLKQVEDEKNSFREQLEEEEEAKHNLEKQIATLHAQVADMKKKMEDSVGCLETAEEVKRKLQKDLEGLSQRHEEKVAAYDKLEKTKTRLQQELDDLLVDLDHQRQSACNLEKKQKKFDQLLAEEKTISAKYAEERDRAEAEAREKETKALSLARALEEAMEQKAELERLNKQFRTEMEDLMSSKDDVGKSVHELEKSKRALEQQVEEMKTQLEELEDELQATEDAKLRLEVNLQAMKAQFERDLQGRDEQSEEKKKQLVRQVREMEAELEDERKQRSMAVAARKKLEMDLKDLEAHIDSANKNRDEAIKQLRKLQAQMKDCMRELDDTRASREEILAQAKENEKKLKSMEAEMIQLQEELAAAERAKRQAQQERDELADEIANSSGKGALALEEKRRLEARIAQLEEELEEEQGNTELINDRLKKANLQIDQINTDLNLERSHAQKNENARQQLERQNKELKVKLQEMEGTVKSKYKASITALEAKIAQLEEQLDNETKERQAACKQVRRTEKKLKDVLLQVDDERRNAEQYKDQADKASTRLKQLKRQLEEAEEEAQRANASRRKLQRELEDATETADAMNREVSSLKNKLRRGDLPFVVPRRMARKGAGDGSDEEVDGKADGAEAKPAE

[10] = molecular target: Hemoglobin subunit alpha (human) (UniProt P69905); test: as above
[11] = molecular target: ATP synthase subunit beta (human) (UniProt P06576); test: as above
cDNA FLJ76817 (human) = test: as above
Alpha-actinin-1 (human) = Alpha-actinin-1 (human) (UniProt P12814); test: as above
[12] = molecular target: Glucose-6-phosphate isomerase (human) (UniProt P06744); test: as above
[13] = molecular target: Glyceraldehyde-3-phosphate dehydrogenase (human) (UniProt P04406); test: as above
[14] = molecular target: Protein tyrosine phosphatase (human) (UniProt P08575); test: as above
[15] = molecular target: Adenylyl cyclase-associated protein (human) (UniProt B2RDY9); test: as above
cDNA FLJ75120 (human) = cDNA FLJ75120 (human) (UniProt Q99536); test: as above
Chain of UniProt Q99536 (Q99536 2-393): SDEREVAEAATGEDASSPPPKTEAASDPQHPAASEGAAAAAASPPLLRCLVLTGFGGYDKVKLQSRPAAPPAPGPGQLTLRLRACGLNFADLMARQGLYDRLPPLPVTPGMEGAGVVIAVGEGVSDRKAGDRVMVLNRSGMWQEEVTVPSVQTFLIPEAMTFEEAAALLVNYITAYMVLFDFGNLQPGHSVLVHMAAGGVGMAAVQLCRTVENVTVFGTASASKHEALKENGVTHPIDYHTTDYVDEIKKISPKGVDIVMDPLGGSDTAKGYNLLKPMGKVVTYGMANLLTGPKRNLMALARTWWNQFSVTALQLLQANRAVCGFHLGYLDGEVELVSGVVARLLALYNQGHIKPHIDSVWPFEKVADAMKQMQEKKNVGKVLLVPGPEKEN

cDNA FLJ55493 (human) = cDNA FLJ55493 (human) (UniProt B4DMF5); test: as above
[16] = molecular target: human CD11b (Integrin alpha-M), full length (human) (UniProt P11215); test: as above
Protein S100-A8 (human) = Protein S100-A8 (human) (UniProt P05109); test: as above
Chain of UniProt P05109 (P05109 whole entry): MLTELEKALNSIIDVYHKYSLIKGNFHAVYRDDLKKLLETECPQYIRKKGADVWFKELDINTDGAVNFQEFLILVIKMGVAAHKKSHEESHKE

cDNA FLJ78440 (human) = cDNA FLJ78440 (human) (UniProt A8K494); test: as above
[17] = molecular target: Putative uncharacterized protein LCN2 (human) (UniProt P80188); test: as above
Myeloperoxidase (human) = Myeloperoxidase (human) (UniProt P05164); test: as above
Actin (human) = Actin (human) (UniProt P63261); test: as above
Transketolase (human) = Transketolase (human) (UniProt P29401); test: as above
cDNA FLJ55635 (human) = test: as above
[18] = molecular target: Adipocyte plasma membrane-associated protein (human) (UniProt Q9HDC9); test: as above
Cntm_P13645 = Cntm_P13645 (UniProt P13645); test: as above
[19] = molecular target: Pyruvate kinase isozymes M1/M2 (human) (UniProt P14618); test: as above
[20] = molecular target: human CD18 (Integrin beta 2) (human); test: as above
[21] = molecular target: 6-phosphogluconate dehydrogenase (human) (UniProt P52209); test: as above
[22] = molecular target: Mitogen-activated protein kinase 1 (human) (UniProt P28482); test: as above
[23] = molecular target: Heat shock 70kDa protein 1A (human) (UniProt A8K5I0); test: as above
Malic enzyme (human) = Malic enzyme (human) (UniProt P23368); test: as above
[24] = molecular target: Bactericidal permeability-increasing protein (human) (UniProt P17213); test: as above
cDNA, FLJ92148 (human) = cDNA, FLJ92148 (human) (UniProt B2R4M6); test: as above
[25] = molecular target: Peptidoglycan recognition protein (human) (UniProt O75594); test: as above
Chain of UniProt O75594 (O75594 22-196 limits assumed): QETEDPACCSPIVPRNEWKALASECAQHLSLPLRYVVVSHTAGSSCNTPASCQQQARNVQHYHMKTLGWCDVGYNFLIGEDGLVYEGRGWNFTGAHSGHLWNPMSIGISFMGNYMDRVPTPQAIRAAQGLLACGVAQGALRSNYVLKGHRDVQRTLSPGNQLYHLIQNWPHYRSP

Coronin-1A (human) = Coronin-1A (human) (UniProt P31146); test: as above
SFPQ protein (human) = test: as above
CD63 antigen (human) = CD63 antigen (human) (UniProt P08962); test: as above
Chain of UniProt P08962 (P08962 2-238 limits assumed): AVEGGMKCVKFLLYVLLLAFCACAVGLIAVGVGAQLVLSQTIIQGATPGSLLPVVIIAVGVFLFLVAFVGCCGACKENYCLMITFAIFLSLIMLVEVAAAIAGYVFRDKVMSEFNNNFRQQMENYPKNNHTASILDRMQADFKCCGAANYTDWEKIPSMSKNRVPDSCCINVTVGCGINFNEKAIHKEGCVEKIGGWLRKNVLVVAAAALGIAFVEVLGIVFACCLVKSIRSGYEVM

## His-tagged LukAB (leukotoxin AB, purified recombinant from S. aureus Newman)
[1]
  Kd: 1.92 nM
[2]
  Kd: 38.4 nM
[3]
  difference in Kd against the LukAB-murine CD11b I-domain interaction: 8 to 9 logs
[4]
  percent depletion of CD11b+ HEK293T cells (CD11b transfected), 40 µg/ml LukAB, 2 hours, flow cytometry: 80 to 90%
[5]
  # of peptides: 4 peptides
[6]
  # of peptides: 3 peptides
[7]
  # of peptides: 3 peptides
Catalase (human)
  # of peptides: 3 peptides
Serum albumin (human)
  # of peptides: 13 peptides
Alpha-enolase (human)
  # of peptides: 3 peptides
Plastin-2 (human)
  # of peptides: 8 peptides
[8]
  # of peptides: 3 peptides
[9]
  # of peptides: 5 peptides
cDNA FLJ53963 (human)
  # of peptides: 3 peptides
Myosin-9 (human)
  # of peptides: 3 peptides
[10]
  # of peptides: 4 peptides
[11]
  # of peptides: 5 peptides
cDNA FLJ76817 (human)
  # of peptides: 3 peptides
Alpha-actinin-1 (human)
  # of peptides: 3 peptides
[12]
  # of peptides: 3 peptides
[13]
  # of peptides: 6 peptides
[14]
  # of peptides: 3 peptides
[15]
  # of peptides: 4 peptides
cDNA FLJ75120 (human)
  # of peptides: 5 peptides
cDNA FLJ55493 (human)
  # of peptides: 5 peptides
[16]
  # of peptides: 17 peptides
Protein S100-A8 (human)
  # of peptides: 5 peptides
cDNA FLJ78440 (human)
  # of peptides: 8 peptides
[17]
  # of peptides: 5 peptides
Myeloperoxidase (human)
  # of peptides: 7 peptides
Actin (human)
  # of peptides: 7 peptides
Transketolase (human)
  # of peptides: 4 peptides
cDNA FLJ55635 (human)
  # of peptides: 7 peptides
[18]
  # of peptides: 5 peptides
Cntm_P13645
  # of peptides: 10 peptides
[19]
  # of peptides: 9 peptides
[20]
  # of peptides: 12 peptides
[21]
  # of peptides: 3 peptides
[22]
  # of peptides: 5 peptides
[23]
  # of peptides: 5 peptides
Malic enzyme (human)
  # of peptides: 5 peptides
[24]
  # of peptides: 6 peptides
cDNA, FLJ92148 (human)
  # of peptides: 4 peptides
[25]
  # of peptides: 4 peptides
Coronin-1A (human)
  # of peptides: 6 peptides
SFPQ protein (human)
  # of peptides: 4 peptides
CD63 antigen (human)
  # of peptides: 3 peptides
